Article PMC6447045 (Nature chemical biology, 2019)

T1: His-tagged NPAS3 (neuronal PAS domain protein 3) (UniProt Q9QZQ0 56-455)
T1 sequence (looked up): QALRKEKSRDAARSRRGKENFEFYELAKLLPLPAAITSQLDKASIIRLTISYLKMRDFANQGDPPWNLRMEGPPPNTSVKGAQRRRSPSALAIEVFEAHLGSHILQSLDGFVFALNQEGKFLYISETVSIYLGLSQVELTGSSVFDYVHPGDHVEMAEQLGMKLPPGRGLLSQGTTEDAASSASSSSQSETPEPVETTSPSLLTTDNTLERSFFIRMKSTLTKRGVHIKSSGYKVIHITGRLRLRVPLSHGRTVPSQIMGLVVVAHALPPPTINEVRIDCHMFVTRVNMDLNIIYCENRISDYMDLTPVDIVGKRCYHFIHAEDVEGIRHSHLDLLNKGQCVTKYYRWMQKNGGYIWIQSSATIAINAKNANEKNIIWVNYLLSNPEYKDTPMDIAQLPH

B1: chimeric ARNT-GFP protein (ARNT residues 82–470 fused to Aequorea GFP) (domain or fragment)
chain: not shown
B2: His-tagged HIF-1α (domain or fragment)
chain: not shown
B3: mouse HIF-2α bHLH-PAS-A-PAS-B region (3–361), His-tagged (domain or fragment)
chain: not shown
B4: HIF-2α G323E (3–361), His-tagged (domain or fragment)
chain: not shown
B5: HIF-2α mutant M252A (3–361), His-tagged (domain or fragment)
chain: not shown

Legend:
Assay in all cases: FRET or BRET
[1] = target: T1, His-tagged NPAS3 (neuronal PAS domain …)
[2] = target: B1
[3] = target: ARNT F446L-GFP (ARNT residues 82–470 fused to Aequorea GFP) (mouse, UniProt P53762 82-470, F446L)
Chain of ARNT F446L-GFP (ARNT residues 82–470 fused to Aequorea GFP) (P53762 82-470 F446L): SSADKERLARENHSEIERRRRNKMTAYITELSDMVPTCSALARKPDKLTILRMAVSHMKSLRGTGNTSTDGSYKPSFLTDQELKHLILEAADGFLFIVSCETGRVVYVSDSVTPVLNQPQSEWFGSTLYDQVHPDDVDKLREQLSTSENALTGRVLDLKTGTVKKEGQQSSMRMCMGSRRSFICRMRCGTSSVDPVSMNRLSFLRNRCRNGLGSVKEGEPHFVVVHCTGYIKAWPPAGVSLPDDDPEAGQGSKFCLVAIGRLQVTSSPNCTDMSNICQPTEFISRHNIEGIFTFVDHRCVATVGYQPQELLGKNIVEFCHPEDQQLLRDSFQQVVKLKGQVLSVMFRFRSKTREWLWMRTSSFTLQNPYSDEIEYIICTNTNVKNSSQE

| Kd [1] [nM] | Kd [2] [nM] | Kd [3] [nM] | Binder |
| --- | --- | --- | --- |
| 8.6 | – | – | B1 |
| – | 11.7 | – | B2 |
| – | 29.1 | ~0.8 | B3 |
| – | ~10.5 | – | B4 |
| – | 1.4 | – | B5 |
